# Laboratory results published in article PMC10686819.
# “And” between values parts separate entries of the source, which are not always exact repeats. Identical values can stand only once. Like-named read-outs stand apart in the source and are kept apart here.
# Assays:
# Experiment in all cases: cryo-EM structure
# [1] = target: B41 HT2 soluble Env heterotrimer (two B41 SOSIP.664 protomers, one D7324-tagged B41-D368R SOSIP.664 protomer) (HIV-1 (clade B, B41))
# [2] = target: BG505 HT1 soluble Env heterotrimer (two BG505-D368R SOSIP.664 protomers, one D7324-tagged BG505 SOSIP.664 protomer) (HIV-1 (clade A, BG505))
# [3] = target: BG505 HT2 soluble Env heterotrimer (two BG505 SOSIP.664 protomers, one D7324-tagged BG505-D368R SOSIP.664 protomer) (HIV-1 (clade A, BG505))
# [4] = target: BG505 HT1 soluble Env heterotrimer (two BG505-D368R SOSIP.664 protomers, one D7324-tagged BG505 SOSIP.664 protomer) (HIV-1 (clade A, BG505)); remark: listed apart in the source
# [5] = target: BG505 HT2 soluble Env heterotrimer (two BG505 SOSIP.664 protomers, one D7324-tagged BG505-D368R SOSIP.664 protomer) (HIV-1 (clade A, BG505)); remark: listed apart in the source
Substance,stoichiometry N [1],stoichiometry N [2],stoichiometry N [3],stoichiometry N [4],stoichiometry N [5]
CD4 (as used in the cryo-EM complex with B41 HT2; version not stated) (from UniProt P01730 26-396) (receptor),2,,,,
"CD4 D1-D4 (domains 1-4), soluble (receptor)",,1,2 and 1,3,3
